Experimental data published in article PMC10922510.

Columns and labels:
Assay in all cases: BLI
[1] = target: biotinylated human FcγRIIa-131H extracellular domain with AviTag (human) (UniProt P12318)
[2] = target: biotinylated human FcγRIIb extracellular domain with AviTag (human) (UniProt P31994)
[3] = target: biotinylated human FcγRIIa-131R extracellular domain with AviTag (human) (UniProt P12318)
[4] = target: biotinylated human FcγRIIIa-176V extracellular domain with AviTag (human) (UniProt P08637)
UniProt P08637, sequence (P08637 17-208 F176V): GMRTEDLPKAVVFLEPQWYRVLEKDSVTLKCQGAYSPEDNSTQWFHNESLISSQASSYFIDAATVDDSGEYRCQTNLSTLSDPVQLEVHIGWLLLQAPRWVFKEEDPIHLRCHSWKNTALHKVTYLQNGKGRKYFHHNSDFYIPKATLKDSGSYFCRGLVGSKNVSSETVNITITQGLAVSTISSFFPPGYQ

UniProt P31994, sequence (P31994 43-217): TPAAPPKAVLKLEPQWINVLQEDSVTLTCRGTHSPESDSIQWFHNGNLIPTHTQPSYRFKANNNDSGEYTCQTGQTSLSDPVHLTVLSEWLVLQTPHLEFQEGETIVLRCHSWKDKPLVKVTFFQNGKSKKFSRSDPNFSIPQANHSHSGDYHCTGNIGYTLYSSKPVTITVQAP

human IgG1 trastuzumab, wild-type Fc (antibody)
Kd [1]: 290 nM | Kd [2]: 360 nM | Kd [3]: 610 nM | Kd [4]: 610 nM

human IgG1 trastuzumab with Fc mutation P238D (antibody)
Kd [2]: 310 nM

human IgG1 trastuzumab with Fc mutation G236A (antibody)
Kd [1]: 120 nM | Kd [3]: 210 nM
